Target: hnRNP A1B (heterogenous ribonucleoprotein A1B), mouse (mouse (endogenous in C57BL6/N tissues))
Assay: SDS-PAGE immunoblot of tissue lysates (SDS-resistant band); 15 ug of mouse tissue lysate (2 month-old mice, CNS and peripheral tissues) on 12.5% SDS-PAGE, blotted with anti-hnRNP A1B (custom) or anti-hnRNP A1 (4B10)

hnRNP A1B (heterogenous ribonucleoprotein A1B), mouse (natural protein)
stoichiometry N: 2

Reference: article PMC8498194
